Reference: article PMC6611371 (Research and Practice in Thrombosis and Haemostasis, 2019)

How the values were obtained:
Assay in all cases: SPR
FVIIaDV = FVIIaDV (Homo sapiens, UniProt P08709, point mutant)
FVIIaDQ = FVIIaDQ (Homo sapiens, UniProt P08709, point mutant)
FVIIaVQ = FVIIaVQ (Homo sapiens, UniProt P08709, point mutant)

B1: mAb4F5 (antibody, V domains shown)
VH: EVKLVESGGGLVQPGGSRKLSCAASGFTFSDYGMAWVRQAPGKGPEWIAFISNLSRIYYADTVTGRFTISRENDKNTLFLEMSSLRSEDSAIYYCTRDDGYYRVDYWGQGATLTVSS
VL: DIVMTQSHKFLSTSVGNRVSITCKASQDVGIGLVSWYQQKPGQSPKLLIHWASTRHTGVPDRFTGSGSGTDFTLTINNVQSEDLATYFCQQFSNYPLTFGSGTRLEIK
FVIIaDV
  Kd: 1.1 nM
  koff: 0.00016 s⁻¹
FVIIaDQ
  Kd: 1.9 nM
  koff: 0.00024 s⁻¹
FVIIaVQ
  Kd: 130 nM
  koff: 0.0035 s⁻¹
